Molecular target: CCR5 on human monocytes (human) (UniProt P51681)
Assay: cell-based or functional assay

chemotactic index of human monocytes, without RAP-103 (times over control): 2
Substance: human CCL4 (MIP-1β) (from UniProt P13236 24-92) (ligand)

Source: patent publication US20180360907A1
